The record followed here is patent US20100075434A1 (NATIONAL UNIVERSITY CORPORATION TOKYO MEDICAL AND DENTAL …, published 2010).

For orientation: Kd means a measure of binding affinity in units of concentration.

Assay [1] concerns the target T1, fused protein of DsRed and PKC having at its N terminal end a tag polypeptide of sequence (A) (Homo sapiens (Human), UniProt Q05655 1-676).
T1 construct: Expressed in the cytoplasm of CHO.K1 cells, which were permeabilized with saponin before the probe was added; also called tag-fused PKC
As to the kind of experiment: fluorescence microscopy of permeabilized CHO.K1 cells, 1 µM probe, NBD against DsRed localization with and without PDBu. On the procedure: Subsequently, a permeabilization buffer (20 mM Hepes, pH 7.4, 140 mM KCl, 50 μg/mL saponin, 5 mM oxalic acid) was added to the thus-prepared CHO.K1 cells. After left to stand on ice for 10 min, the cells were washed with PBS, followed by incubating on ice for 20 min in PBS. Thereafter, the cells were incubated in PBS at room temperature for 2 min and then 37° C. for 2 min. Further, the cells were incubated at 37° C. for 30 min in a conditioned medium (Ham's F12) to which a probe indicated by sequence (B) (probe concentration: 1 μM (Final conc.)) had been added.
Separately, before treated with the permeabilization buffer, the above-prepared CHO.K1 cells were treated for 10 min with 10 mM DMSO containing PDBu (phorbol 12,13 dibutyrate; final concentration: 10 μM). The cells were observed by the fluorescence microscope similar to the above.
The following was used as a control; a group which was not treated with PDBu, and CHO.K1 cells to which only DIC was introduced (note that DIC is a vector used for introducing into cells the above-mentioned fused protein of DsRed and PKC having at its N terminal end a tag polypeptide indicated by sequence (A). The cells were observed as mentioned above at predetermined wavelength (515 nm to 560 nm). The results are shown in FIG. 11.

Assay [2] has as its target T2, tag polypeptide of Example 3, structural formula (11) (not fully specified).
T2 construct: also called G2
T2 peptide: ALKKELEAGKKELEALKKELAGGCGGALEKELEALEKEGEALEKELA
The assay can be described thus: fluorescence titration, 0.5 µM probe in HEPES buffer. On the procedure: (§1) In the fluorescence titration, the rate of change of the fluorescence intensity at 505 nm was plotted against the concentration of the tag peptide and the dissociation constant was calculated from a theoretical formula assuming 1 to 1 binding of the tag peptide to the probe peptide.
(§2) In FIG. 6, the horizontal axis represents the titer of the tag against the probe whereas the vertical axis represents the relative increase in fluorescence intensity when the fluorescence intensity detected for the probe alone at fluorescence wavelength of 505 nm is estimated as 1. […] In Example 1, the fluorescence intensity at 505 nm in the presence of 1 equivalent of tag peptide was 18 times as high as that measured in the absence of the tag peptide.

The target of assay [3] is T3, tag polypeptide of Example 1, structural formula (8) (not fully specified).
T3 construct: Chemically synthesized from two fragments (Chain A with the linker cysteine, Chain B) joined by native chemical ligation; also called A2
T3 peptide: T2 peptide with G9A, G39A
The description is as above. On the procedure: as §1, §2

The target of assay [4] is T4, tag polypeptide of Example 2, structural formula (10).
T4 construct: also called L2
T4 peptide: T2 peptide with G9L, G39L
Described as above. On the procedure: as §1, §2

Assay [5] concerns the target T2, tag polypeptide of Example 3, …. The assay can be described thus: fluorescence titration, tag added to 0.5 µM probe in HEPES buffer, 505 nm, 1:1 model. On the procedure:
as §1, §2

In assay [6] the target is T3, tag polypeptide of Example 1, …. Described as above. On the procedure:
as §1, §2

Assay [7] has as its target T4, tag polypeptide of Example 2, …. The assay is described as above. On the procedure: as §1, §2

Substitutions are numbered along the chain they refer to. Square brackets hold non-standard residues; d marks the D form. * marks the point of attachment. NBD = O=[N+]([O-])c1ccc(*)c2nonc12; Dap = NC[C@H](N)C(=O)O; ClAc = O=C(CCl)*

T1 sequence (Q05655 other isoform, or with tags, fused parts or gaps limits assumed): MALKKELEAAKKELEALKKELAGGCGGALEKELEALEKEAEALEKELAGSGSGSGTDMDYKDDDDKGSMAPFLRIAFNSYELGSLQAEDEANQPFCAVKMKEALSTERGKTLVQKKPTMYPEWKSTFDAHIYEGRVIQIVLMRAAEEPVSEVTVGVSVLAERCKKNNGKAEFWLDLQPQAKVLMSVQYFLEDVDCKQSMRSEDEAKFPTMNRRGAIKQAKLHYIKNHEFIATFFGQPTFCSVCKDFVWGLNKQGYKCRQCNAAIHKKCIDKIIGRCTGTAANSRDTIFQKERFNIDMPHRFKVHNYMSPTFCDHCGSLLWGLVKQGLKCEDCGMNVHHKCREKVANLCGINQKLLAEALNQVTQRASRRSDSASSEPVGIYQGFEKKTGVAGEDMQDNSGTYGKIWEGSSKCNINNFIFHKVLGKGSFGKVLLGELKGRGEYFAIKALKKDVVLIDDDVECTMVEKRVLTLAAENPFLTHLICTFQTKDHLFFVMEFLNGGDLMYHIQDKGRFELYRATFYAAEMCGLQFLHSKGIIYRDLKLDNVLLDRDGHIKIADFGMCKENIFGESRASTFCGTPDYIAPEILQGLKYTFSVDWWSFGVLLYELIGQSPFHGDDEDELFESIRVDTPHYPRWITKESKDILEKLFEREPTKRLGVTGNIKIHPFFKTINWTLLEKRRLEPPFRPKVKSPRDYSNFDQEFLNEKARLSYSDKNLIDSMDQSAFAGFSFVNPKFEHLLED

B1: probe peptide for crosslink reaction, structural formula (12) (peptide)
peptide: ClAc-GALKKKLEALKKK[Dap](NBD)EALKKKLA-NH2
notes: also called ClAc-G probe
As to B1, the binding result in assay [1] was “binds”.

B2: probe polypeptide of Example 1, structural formula (9) (peptide)
peptide: Ac-ALKKKLEALKKK[Dap](NBD)EALKKKLA-NH2
SMILES: CC(=O)N[C@@H](C)C(=O)N[C@@H](CC(C)C)C(=O)N[C@@H](CCCCN)C(=O)N[C@@H](CCCCN)C(=O)N[C@@H](CCCCN)C(=O)N[C@@H](CC(C)C)C(=O)N[C@@H](CCC(=O)O)C(=O)N[C@@H](C)C(=O)N[C@@H](CC(C)C)C(=O)N[C@@H](CCCCN)C(=O)N[C@@H](CCCCN)C(=O)N[C@@H](CCCCN)C(=O)N[C@@H](CNc1ccc([N+](=O)[O-])c2nonc12)C(=O)N[C@@H](CCC(=O)O)C(=O)N[C@@H](C)C(=O)N[C@@H](CC(C)C)C(=O)N[C@@H](CCCCN)C(=O)N[C@@H](CCCCN)C(=O)N[C@@H](CCCCN)C(=O)N[C@@H](CC(C)C)C(=O)N[C@@H](C)C(N)=O
notes: the text says (9); also called L-NBD; probe peptide
For B2, the “equivalents of tag peptide at which the change in fluorescence saturates” value in assay [2], in assay [3] and in assay [4] was 1 equivalent each time. Besides, the “fold increase of fluorescence intensity at 505 nm with 1 equivalent of tag peptide against probe alone” value in assay [3] stood at 18 times. For the same molecule, the Kd stood at 755 nM in assay [5], 17.5 nM in assay [6] and 24.3 nM in assay [7].
